Test results taken from PMC12784962, “https://orcid.org/0000-0002-3633-7823 Baral Joydeep Department of Bioscience and Biotechnology, Indian Institute of Technology Kharagpur, West Midnapore 721302, West Bengal, India”.

T1: mKu WT (Mycobacterium tuberculosis, UniProt P9WKD9 1-273)
T1 sequence: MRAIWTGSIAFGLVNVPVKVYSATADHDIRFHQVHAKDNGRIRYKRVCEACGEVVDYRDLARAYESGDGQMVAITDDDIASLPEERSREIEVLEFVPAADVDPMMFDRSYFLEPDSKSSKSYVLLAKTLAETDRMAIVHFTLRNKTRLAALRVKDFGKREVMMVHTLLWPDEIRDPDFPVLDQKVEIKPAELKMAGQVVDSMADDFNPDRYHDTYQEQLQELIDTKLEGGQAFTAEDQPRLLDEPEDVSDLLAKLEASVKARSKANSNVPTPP

B1: 50-bp Cy3/Cy5 FRET dsDNA (dsDNA)
DNA 1: CCACACTGTCGCCGCCGACGTCTGTGATATGGCGTTGTTGCGCCGCCGAC
DNA 2: GTCGGCGGCGCAACAACGCCATATCACAGACGTCGGCGGCGACAGTGTGG
B2: shDNA (21-mer/34-mer hairpin) (structured_DNA)
DNA 1: GTTTTTAGTTTATTGGGCGCG
DNA 2: CGCGCCCAGCTTTCCCAGCTAATAAACTAAAAAC

Assays:
mKu WT [1] = target: T1, mKu WT; test: FRET; 250 nM DNA, 0-305 nM mKu; saturating synapsis signal; EMSA: 25 mM Tris-Cl pH 7.5, 100 mM NaCl, 30 mM KCl, 0.1 mM EDTA, 0.05% Triton X-100, BSA, 2% glycerol, 2 mM DTT, 25 C, 30 min; FRET: 10 mM PBS pH 7.4, 25 C; cryo-EM: 4 C, 30 min; conditions: protein: recombinant; pET16b); chain copies: 2; label: S4: 5'-Cy5, 3'-Cy3; complement (S5): 5'-Cy3, 3'-Cy5; blunt
mKu WT [2] = target: T1, mKu WT; test: cryo-EM; 5 uM mKu dimer and 5 uM DNA; supercomplex; EMSA: 25 mM Tris-Cl pH 7.5, 100 mM NaCl, 30 mM KCl, 0.1 mM EDTA, 0.05% Triton X-100, BSA, 2% glycerol, 2 mM DTT, 25 C, 30 min; FRET: 10 mM PBS pH 7.4, 25 C; cryo-EM: 4 C, 30 min; conditions: protein: recombinant; pET16b); chain copies: 2; hairpin at one end, other end blunt

Row | Binder | binding result (mKu WT [1]) | binding result (mKu WT [2])
1 | B1 | binds | 
2 | B2 |  | binds
